Data on seven molecules can be found in article PMC5750232, “RAD54 N-terminal domain is a DNA sensor that couples ATP hydrolysis with branch migration of Holliday junctions” (Nature Communications, 2018).

The target of data set [1] is T1, RAD54 1-142 (NTD) (human, UniProt Q92698 1-142).
T1 sequence: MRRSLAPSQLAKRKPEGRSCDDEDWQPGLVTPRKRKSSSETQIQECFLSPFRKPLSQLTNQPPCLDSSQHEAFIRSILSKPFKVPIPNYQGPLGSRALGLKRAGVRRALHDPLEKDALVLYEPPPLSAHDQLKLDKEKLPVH
Description: competition EMSA. To be noted: vs 30 nM 32P-PX junction, 300 nM protein, 5 mM Mg2+, 2 mM ATP, 25 mM Tris-acetate pH 7.5, 5 mM Mg acetate, 100 ug/ml BSA, 2 mM DTT, 10% glycerol, 4 C, 45 min, 30 nM PX junction, 6% native PAGE in 0.25x TBE, scale: fold excess, PX complexes stable at 150-200-fold excess of ss- or dsDNA. (In general: A gel shift assay detects complexes by their altered migration in electrophoresis.)

Data set [2] concerns the target T2, RAD54 156-747 (human, UniProt Q92698 156-747).
T2 sequence: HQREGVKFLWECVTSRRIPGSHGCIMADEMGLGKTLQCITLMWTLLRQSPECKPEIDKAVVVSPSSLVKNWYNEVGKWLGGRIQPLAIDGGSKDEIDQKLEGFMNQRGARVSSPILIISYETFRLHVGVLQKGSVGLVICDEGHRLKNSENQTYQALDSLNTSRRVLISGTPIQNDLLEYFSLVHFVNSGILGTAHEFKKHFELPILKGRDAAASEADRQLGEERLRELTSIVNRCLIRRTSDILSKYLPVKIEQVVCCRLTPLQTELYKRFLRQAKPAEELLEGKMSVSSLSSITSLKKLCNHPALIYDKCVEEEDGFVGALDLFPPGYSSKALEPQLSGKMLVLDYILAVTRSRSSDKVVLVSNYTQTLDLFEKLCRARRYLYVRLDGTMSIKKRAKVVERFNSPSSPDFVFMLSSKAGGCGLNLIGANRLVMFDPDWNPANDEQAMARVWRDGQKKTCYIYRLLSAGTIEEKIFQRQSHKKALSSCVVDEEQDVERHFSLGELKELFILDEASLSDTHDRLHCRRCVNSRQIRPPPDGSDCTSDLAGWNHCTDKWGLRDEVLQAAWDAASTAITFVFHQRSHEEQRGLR
Description: competition EMSA. To be noted: vs 30 nM 32P-PX junction, 100 nM protein, 5 mM Mg2+, 2 mM ATP, 25 mM Tris-acetate pH 7.5, 5 mM Mg acetate, 100 ug/ml BSA, 2 mM DTT, 10% glycerol, 4 C, 45 min, 30 nM PX junction, 6% native PAGE in 0.25x TBE, scale: fold excess of competitor giving 50% dissociation of PX complexes.

Data set [3] concerns the molecule itself. Description: cross-linking; BMH (25 µM) cross-linking of the protein (1.2 µM) without DNA; 20 mM HEPES-KOH pH 7.5, 5 mM MgCl2, 5 mM EDTA, 40 mM KCl, 25 °C; 15% SDS-PAGE, silver staining.
Data set [4] has as its target T1, RAD54 1-142 (NTD). Description: competition EMSA; vs 30 nM 32P-PX junction; 300 nM protein; 5 mM Mg2+, 2 mM ATP; 25 mM Tris-acetate pH 7.5, 5 mM Mg acetate, 100 ug/ml BSA, 2 mM DTT, 2 mM ATP, 10% glycerol, 4 C, 45 min; 30 nM PX junction; 6% native PAGE in 0.25x TBE. As to conditions: protein: recombinant; tags: Sumo-His, cleaved; four-way junction, 4 strands.
Data set [5] concerns the target T2, RAD54 156-747. Description: EMSA; 100 nM protein; 5 mM Mg2+, 2 mM ATP; 25 mM Tris-acetate pH 7.5, 5 mM Mg acetate, 100 ug/ml BSA, 2 mM DTT, 2 mM ATP, 10% glycerol, 4 C, 45 min; 30 nM PX junction; 6% native PAGE in 0.25x TBE. As to conditions: protein: recombinant; tags: Sumo-His, cleaved; partial X junction with one ssDNA arm, 4 strands.
Data set [6] has as its target T1, RAD54 1-142 (NTD). Description: EMSA; distinct complexes from 0.1 uM protein; 5 mM Mg2+, 2 mM ATP; 25 mM Tris-acetate pH 7.5, 5 mM Mg acetate, 100 ug/ml BSA, 2 mM DTT, 2 mM ATP, 10% glycerol, 4 C, 45 min; 30 nM PX junction; 6% native PAGE in 0.25x TBE. To be noted: protein: recombinant; tags: Sumo-His, cleaved; partial X junction with one ssDNA arm, 4 strands.

Where a chain is given by its changes, count along the chain named.

On to ssDNA (oligo 2), for which the binding signal was over 150 in the data set with RAD54 1-142 (NTD) [1] and 4 with RAD54 156-747 [2].

In turn, dsDNA (oligos 1/2) returned a binding signal with RAD54 1-142 (NTD) [1] of over 150.

B1: RAD54_(1–142) NTD (domain or fragment, human, UniProt Q92698 1-142, looked up)
chain: T1 sequence
notes: cloned in pETHSUL; Sumo-His tag cleaved off by Sumo hydrolase; also called RAD54 NTD; source: E. coli Rosetta 2 (DE3), purified (HiTrap Ni2+, Sephacryl S-200 HR, Resource S)
With B1, the “stoichiometry N” value in data set [3] worked out at 2.

B2: RAD54_(1–142) ^33AAAA36 (domain or fragment, human, UniProt Q92698 1-142, looked up)
chain: T1 sequence with R33A, K34A, R35A, K36A
notes: source: E. coli Rosetta 2 (DE3), purified (HiTrap Ni2+, Sephacryl S-200 HR, Resource S)
With B2, the “stoichiometry N” value in data set [3] amounted to 2.

B3: RAD54_(1–142) ^S49E (domain or fragment, human, UniProt Q92698 1-142, looked up)
chain: T1 sequence with S49E
notes: as for B2
Consider B3, for which the “stoichiometry N” value in data set [3] is 2.

B4: X-junction (174/175/176/177) (structured_DNA)
DNA 1: GACGCTGCCGAATTCTACCAGTGCCTTGCTAGGACATCTTTGCCCACCTGCAGGTTCACCC
DNA 2: TGGGTGAACCTGCAGGTGGGCAAAGATGTCCTAGCAATGTAATCGTCAAGCTTTATGCCGTT
DNA 3: CAACGGCATAAAGCTTGACGATTACATTGCTAGGACATGCTGTCTAGAGGATCCGACTATCGA
DNA 4: ATCGATAGTCGGATCCTCTAGACAGCATGTCCTAGCAAGGCACTGGTAGAATTCGGCAGCGT
With B4, the binding signal with RAD54 1-142 (NTD) [4] is ~6 fold preference for PX junction over HJ (X-junction).

B5: non-mobile PX junction (174/175/176/181) (structured_DNA)
DNA 1: B4 DNA 1
DNA 2: B4 DNA 2
DNA 3: B4 DNA 3
DNA 4: TCGATAGTCGGATCCTCTAGACAGC
As to B5, the binding result with RAD54 156-747 [5] and with RAD54 1-142 (NTD) [6] was “binds” throughout.

Broadly, the stoichiometry N is a count of units in the complex or per binding partner.
